Data from patent US20240327460A1, “NORA INHIBITORS AND METHODS OF USE” (priority 2021, published 2024).
Substitutions are numbered along the chain they refer to. In names and notes the source's numbering stands. Where two headings read alike, the source gives them in different places.

Legend:
MRSA = type: cell-based, Staphylococcus aureus
Method: To test the effects of peptides, overnight cultures of wild-type MRSA and MRSA^ΔnorA in TSB media were diluted 1:1,000 in TSB with varying concentrations of peptides, in the presence or the absence of norfloxacin (12.5 μg/ml). All the peptide concentrations contained equal amount of the DMSO vehicle. OD600nm was measured as a function of time in a BioScreen C device at 37° C. with shaking between measurements every 15 min. Three independent experiments were acquired; reported errors reflect the standard deviation among the independent experiments.

NorA [1] = target: T1, NorA (Staphylococcus aureus, UniProt Q5HHX4); assay: Fluorescence polarization (FP) binding of FITC-NPI-1 to NorA; set-up: species or system S. aureus
T1 construct: made in house; host or cells: C43 (DE3) E. coli
Method: Amphipol-purified NorA underwent an additional round of SEC to remove free amphipol. Fluorescence polarization (FP) experiments were performed on a DTX 880 Multimode Detector (Beckman) at 25° C. with excitation and emission wavelengths set to 485 and 525 nm, respectively. For NorA binding assays, increasing concentrations of NorA were added to wells of 15 nM FITC-NPI-1 in 100 μL solutions of 20 mM Tris pH 7.5, 100 mM NaCl, 10% glycerol, 0.1% pluronic acid, and 1.2% DMSO on black, U-shape 96 well plates (BRANDplates). All samples were incubated for 15 min on a shaking plate. FP values as a function of NorA concentration ([L]) were fit using the following quadratic binding equation in GraphPad Prism to obtain the binding affinity (Kd) for FITC-NPI-1 ([P]T).
Ymax and Yoffset are normalization parameters. The reported Kd value and error for FITC-NPI-1 reflects the average and standard deviation among seven independent experiments, each performed in triplicate.

NorA [2] = target: T1, NorA; assay: Competitive MST peptide binding experiment (NPI-1 versus labelled Fab36); set-up: species or system S. aureus; settings: NorA 6 μM, Fab36 40 nM, NPI-1 1.5 nM to 50 μM
Method: Competitive peptide binding experiments were performed with MST using fluorescently labelled Fab36 as described above. These experiments used fixed concentrations of NorA in PMAL-C8 amphipol at 6 μM and Fab36 at 40 nM, and a variable concentration of NPI-1 from 1.5 nM to 50 μM. Competitive peptide binding experiments were collected with three replicates.

[3] = target: T2, S. aureus NorA with a carboxy-terminal decahistidine tag, purified (Staphylococcus aureus, UniProt Q5HHX4 1-388)
T2 sequence: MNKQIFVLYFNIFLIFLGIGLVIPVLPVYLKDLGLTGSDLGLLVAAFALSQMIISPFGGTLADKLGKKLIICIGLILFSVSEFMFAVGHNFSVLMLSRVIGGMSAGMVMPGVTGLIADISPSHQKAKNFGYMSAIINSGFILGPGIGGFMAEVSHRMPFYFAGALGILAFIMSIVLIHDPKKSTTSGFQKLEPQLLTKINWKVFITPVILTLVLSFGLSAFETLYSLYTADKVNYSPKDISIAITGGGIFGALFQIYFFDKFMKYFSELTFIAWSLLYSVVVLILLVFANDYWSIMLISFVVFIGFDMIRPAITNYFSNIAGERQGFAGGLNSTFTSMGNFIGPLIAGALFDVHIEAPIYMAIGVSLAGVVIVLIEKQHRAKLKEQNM

[4] = target: T2, S. aureus NorA with a carboxy-terminal …; assay: MST
NorA [5] = target: T3, NorA (Staphylococcus aureus, UniProt Q5HHX4); assay: Inhibition of NorA by Fabs in E. coli (co-expression growth inhibition assay); type: cell-based, S. aureus; settings: E. coli co-expressing NorA and Fab; for E. coli growth inhibition in the presence of norfloxacin: 1.2 μg/ml norfloxacin, arabinose-induced Fab, OD600nm; for E. coli growth inhibition in the absence of norfloxacin: no norfloxacin
T3 construct: made in house; host or cells: C43 (DE3) E. coli
T3 sequence (Q5HHX4 whole entry, looked up): T2 sequence
Description: NorA was encoded in a pTrcHis2C plasmid (ampicillin resistance) with a C-terminal myc-tag (Yu et al., “NorA Functions as a Multidrug Efflux Protein in Both Cytoplasmic Membrane Vesicles and Reconstituted Proteoliposomes,” J Bacteriol 184:1370-1377 (2002), which is hereby incorporated by reference in its entirety), while Fabs were cloned in a pBAD33 plasmid (gentamicin resistance) (Jimenez et al., “Genetics and Proteomics of Aeromonas salmonicida Lipopolysaccharide Core Biosynthesis,” J Bacteriol 191:2228-2236 (2009), which is hereby incorporated by reference in its entirety) with a C-terminal Avi-tag on the heavy chain of the Fab. Competent Top10 E. coli were co-transformed with vectors containing NorA and Fabs (Fab25, Fab36, or Fabcontrol) and grown on LB agar plates infused with carbenicillin and gentamicin. For time dependent growth curves, a single colony from the transformation was inoculated into TBG media in the presence of carbenicillin and gentamicin. The culture was grown to saturation for ˜20 hr at 30° C. Cultures were diluted by 300-fold into fresh TBG media containing carbenicillin and gentamicin, norfloxacin (0 or 1.2 μg/ml), and arabinose (0%, 0.0001%, 0.0005%, 0.0025%, 0.01%, 0.05%, 0.1%, 0.2%, 0.4%, or 0.8%). OD600nm was measured as a function of time in a BioScreen Pro C device at 30° C. with shaking between measurements every 15 min. Four independent experiments were acquired with two technical replicates per experiment; reported errors reflect the standard deviation among the experiments. Immunoblot (IB) analyses were performed on E. coli lysates co-expressing NorA and Fabs following 24 hr of growth in TBG media in the absence of norfloxacin. Primary antibodies at 1:1,000 dilutions detected the C-terminal myc tag on NorA (Genscript) and the C-terminal Avi tag on the heavy chain of the Fab (Genscript). IB analyses were repeated two independent times.
The insertion of Fab CDRH3 loops into the substrate binding pocket of NorA, as observed in the cryo-EM structures, afforded the expectation that Fab binding would inhibit antibiotic efflux (FIGS. 1A-1D, 4G). […] Since NorA is located within the inner membrane and confers norfloxacin resistance to E. coli (FIG. 6D), growth inhibition was assessed by co-expressing Fabs in the periplasm to allow access to the extracellular face of NorA. Growth curves (OD600 nm vs. time) were quantified with or without norfloxacin and with variable concentrations of arabinose for inducing Fab expression.

NorA [6] = target: T3, NorA; assay: NorA pull-down from E. coli co-expressing NorA and Fabs, immunoblot; type: binding, S. aureus; settings: co-expression with 0.2% arabinose
[7] = target: T2, S. aureus NorA with a carboxy-terminal …; remark: listed apart in the source
[8] = target: T2, S. aureus NorA with a carboxy-terminal …; assay: MST; range is the 95% confidence interval of the non-linear fit
NorA [9] = target: T3, NorA; assay: Microscale thermophoresis (MST) binding of fluorescently labelled Fabs to NorA in PMAL-C8 amphipol; set-up: species or system S. aureus; settings: labelled Fab 40 nM
Method: Amphipol-purified NorA underwent an additional round of SEC to remove free amphipol. Purified Fabs were prepared as described above and labelled with a primary amine-reactive 647 nm fluorophore (Nanotemper) according to the manufacturer's instructions. Efficient labelling was verified spectroscopically by measuring absorbance at 280 and 650 nm. Microscale thermophoresis (MST) experiments were performed on a Monolith NT.115 Pico instrument (Nanotemper Technologies). Labelled Fab at 40 nM final concentration was mixed with NorA in 20 mM Tris pH 7.0, 100 mM NaCl, and 0.025% (w/v) Tween-20. All samples were incubated for 15 min and loaded into premium glass capillaries. The normalized fluorescent signal (Fnorm) was plotted as a function of ligand concentration and fit with a non-linear sigmoidal regression model (GraphPad Prism) using a Hill slope equal to 1.0 to obtain the Kd values. The error in Kd values for Fab25 (1.2±0.7 μM) and Fab36 (140±20 nM) represent the average and standard deviation of two independent runs with three replicates per independent run. The error range in the Kd value for Fab36^W133A (2 to 4 μM) corresponds to the 95% confidence interval of the non-linear fit. […] MST binding experiments with Fab36^W133A and Fab36^R134A were collected with three replicates each.

[10] = target: T4, S. aureus NorA with a carboxy-terminal decahistidine tag, purified (Staphylococcus aureus), Q5HHX4
T4 chain: T2 sequence

[11] = target: T4, S. aureus NorA with a carboxy-terminal …
[12] = target: T5, Native NorA of MRSA (USA300 strain JE2) (Staphylococcus aureus), Q5HHX4; assay: cell-based or functional assay
T5 chain: T2 sequence

H-YYYYAWRVGGYWR-NH2 [NPI-1, NH2-YYYYAWRVGGYWR-CONH2]
IC50 (MRSA; in the presence of 12.5 μg/ml norfloxacin, 10 hr timepoint, read-out: IC50 growth inhibition of MRSA): 720 ± 80 nM | growth of MRSA in the absence of norfloxacin (MRSA; peptide alone, no norfloxacin): did not inhibit the growth of MRSA | Kd (NorA [1]): 10 ± 5 nM | greater affinity to NorA (NorA [1]; NPI-1 relative to Fab36): ~14 fold | displacement of bound Fab36 from NorA (NorA [2]): could displace bound Fab36 from NorA

B1: Fab36 (Fab, V domains shown)
VH: EVQLVESGGGLVQPGGSLRLSCAASGFTFSSSSIHWVRQAPGKGLEWVASISSSSGSTSYADSVKGRFTISADTSKNTAYLQMNSLRAEDTAVYYCARYSRYYYYAWRVGGYWGGLDYWGQGTLVTVSS
VL: DIQMTQSPSSLSASVGDRVTITCRASQSVSSAVAWYQQKPGKAPKLLIYSASSLYSGVPSRFSGSRSGTDFTLTISSLQPEDFATYYCQQSSSSLITFGQGTKVEIKR
notes: also called N3-36
Kd [3]: 140 nM | fold tighter binding affinity against Fab25 [4]: ~9 fold

B2: Fab36: synthetic antigen-binding fragment binding NorA; CDRH3 SEQ ID NO: 7; VH SEQ ID NO: 32, VL SEQ ID NO: 33 (antibody, V domains shown)
VH: B1 VH
VL: DIQMTQSPSSLSASVGDRVTITCRASQSVSSAVAWYQQKPGKAPKLLIYSASSLYSGVPSRFSGSRSGTDFTLTISSLQPEDFATYYCQQSSSSLITFGQGTKVEIKRTV
modifications: NorA Antibody N3-36, Heavy Chain Variable Region; NorA Antibody N3-36, Light Chain Variable Region
E. coli growth inhibition in the presence of norfloxacin (NorA [5]): strongly attenuated E. coli growth in an arabinose-dependent manner | E. coli growth inhibition in the absence of norfloxacin (NorA [5]): no growth inhibition | Fab in elution fraction of purified NorA (NorA [6]): contained the Fabs as detected through immunoblotting

B3: Fab36^W133A (Fab, V domains shown)
VH: B1 VH with W107A
VL: B1 VL
fold reduced binding affinity against Fab36 [4]: ~20 fold | Kd [7]: 2800 nM | Kd [8]: 2000 to 4000 nM

B4: Fab25: synthetic antigen-binding fragment binding NorA; CDRH3 SEQ ID NO: 6; VH SEQ ID NO: 30, VL SEQ ID NO: 31 (antibody, V domains shown)
VH: EVQLVESGGGLVQPGGSLRLSCAASGFTFSSSSIHWVRQAPGKGLEWVASISSSSGSTSYADSVKGRFTISADTSKNTAYLQMNSLRAEDTAVYYCARWETGYYPYWRMYGFYWALDYWGQGTLVTVSS
VL: B2 VL
modifications: NorA Antibody N3-25, Heavy Chain Variable Region; NorA Antibody N3-25, Light Chain Variable Region
Kd (NorA [9]): 1200 ± 700 nM | E. coli growth inhibition in the presence of norfloxacin (NorA [5]): showed inhibition of NorA, albeit to a lesser extent than for Fab36 | E. coli growth inhibition in the absence of norfloxacin (NorA [5]): no growth inhibition | Fab in elution fraction of purified NorA (NorA [6]): contained the Fabs as detected through immunoblotting

H-YYYYAWRVGGYWR-NH2 [NPI-1 (NorA peptide inhibitor), NH2-…-CONH2]
EC50 [10]: 6290 nM | IC50 (read off the curve) [11]: 7000 nM | IC50 of dose-dependent growth inhibition of MRSA in the presence of norfloxacin (12.5 µg/ml), 10 hr timepoint [12]: 720 nM
